From publication PMC8280789

Columns and labels:
Experiment in all cases: ELISA; dose-response: host component coated (1 μg/well); rLIC13086 at rising concentrations (0–5 μM in the methods; 0–0.5 μM or 0–5 μM in the legends), 2 h at 37°C; detected with HRP-conjugated anti-His mAb; KD from a non-linear fit of the specific binding equation (GraphPad Prism)
[1] = target: C9 (human) (UniProt P02748)
[2] = target: plasminogen (human)
[3] = target: C4BP (human)
[4] = target: fibrinogen (human)
[5] = target: C4b (human)
[6] = target: C5b6 (human) (UniProt P13671)
[7] = target: C8 (human)
[8] = target: plasma fibronectin (human)
[9] = target: C7 (human) (UniProt P10643)
Sequence of UniProt P10643 (P10643 23-843): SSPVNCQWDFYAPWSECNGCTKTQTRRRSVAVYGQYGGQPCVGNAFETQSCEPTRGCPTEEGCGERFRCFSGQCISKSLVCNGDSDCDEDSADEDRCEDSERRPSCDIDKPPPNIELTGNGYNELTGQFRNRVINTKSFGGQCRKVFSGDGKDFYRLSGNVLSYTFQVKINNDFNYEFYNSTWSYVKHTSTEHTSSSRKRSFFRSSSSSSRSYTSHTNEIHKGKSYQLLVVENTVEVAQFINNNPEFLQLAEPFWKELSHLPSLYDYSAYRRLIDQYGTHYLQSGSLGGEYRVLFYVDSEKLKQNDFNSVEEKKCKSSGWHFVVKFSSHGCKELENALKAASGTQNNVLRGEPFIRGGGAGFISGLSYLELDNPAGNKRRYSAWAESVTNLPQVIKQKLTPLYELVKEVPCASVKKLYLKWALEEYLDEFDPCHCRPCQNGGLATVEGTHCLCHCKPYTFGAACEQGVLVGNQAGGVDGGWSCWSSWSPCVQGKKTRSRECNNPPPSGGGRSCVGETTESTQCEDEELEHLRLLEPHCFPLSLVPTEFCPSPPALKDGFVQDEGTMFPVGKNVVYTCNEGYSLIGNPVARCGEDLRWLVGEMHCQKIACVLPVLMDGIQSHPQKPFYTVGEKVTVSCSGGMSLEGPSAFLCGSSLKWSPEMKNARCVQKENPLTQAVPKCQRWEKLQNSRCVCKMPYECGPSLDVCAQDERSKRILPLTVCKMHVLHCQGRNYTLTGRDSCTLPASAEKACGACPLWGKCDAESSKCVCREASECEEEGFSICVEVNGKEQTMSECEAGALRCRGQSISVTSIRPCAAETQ

[10] = target: laminin (human)

Sequence of UniProt P02748 (P02748 22-559): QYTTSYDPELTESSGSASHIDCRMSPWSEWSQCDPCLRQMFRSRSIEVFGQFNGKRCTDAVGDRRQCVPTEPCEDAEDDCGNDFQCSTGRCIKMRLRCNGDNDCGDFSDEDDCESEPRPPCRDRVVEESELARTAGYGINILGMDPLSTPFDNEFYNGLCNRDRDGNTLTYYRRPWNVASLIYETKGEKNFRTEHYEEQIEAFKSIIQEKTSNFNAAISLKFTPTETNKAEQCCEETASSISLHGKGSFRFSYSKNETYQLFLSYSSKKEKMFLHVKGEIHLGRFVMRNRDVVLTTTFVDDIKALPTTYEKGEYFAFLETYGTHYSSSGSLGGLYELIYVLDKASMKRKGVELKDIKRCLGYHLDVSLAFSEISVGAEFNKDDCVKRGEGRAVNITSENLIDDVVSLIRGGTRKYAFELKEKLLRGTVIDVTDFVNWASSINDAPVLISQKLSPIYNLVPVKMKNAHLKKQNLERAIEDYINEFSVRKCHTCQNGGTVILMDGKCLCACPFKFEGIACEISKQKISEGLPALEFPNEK

recombinant protein LIC13086 (natural protein)
Kd [1]: 818 nM
Kd [2]: 10.1 nM
Kd [3]: 8.9 nM
Kd [4]: 320 nM
Kd [5]: 162 nM
Kd [6]: 40.3 nM
Kd [7]: 134 nM
Kd [8]: 5.8 nM
Kd [9]: 35.8 nM
Kd [10]: 18.7 nM
